Results published in US20220112284A1 (Innovent, published 2022).

Legend:
[1] = biological target: T1, human PD-L1 on CHOS cells overexpressing PD-L1 (CHOS-PD-L1) (human, UniProt Q9NZQ7 19-290); assay: FACS on CHOS-PD-L1 cells, PE anti-human Fc detection
T1 construct: whole, on cells; also called CHO-PD-L1; PD-L1 on the cell surface
Description: (§1) 2) Detection: The cell suspension was centrifuged at 400 g on a centrifuge for 5 min to remove the cell culture medium. The serial dilutions of the bispecific antibody IGN-LP disclosed herein and anti-humanized Nb-Fc and anti-LAG-3 antibody ADI31853 as controls were added to the U-shaped plate at 100 μL each, and then the cells were resuspended and put onto the ice to stand for 30 min. The cell suspension was centrifuged at 400 g for 5 min to remove the supernatant, and the cells were washed with PBS to remove the unbound antibodies. The resulting cell suspension was centrifuged at 400 g for 5 min to remove PBS. 100 μL of the solution of PE-conjugated anti-human Fc antibody (Jackson Immuno Research) diluted at a ratio of 1:200 was added to each well, and the cells were incubated in the dark on the ice for 30 min. Then the cell suspension was centrifuged at 400 g for 5 min to remove the supernatant. The cells were washed with PBS once to remove the unbound PE-conjugated anti-human Fc antibody. Then the cells were resuspended with 100 μL of PBS, and the binding of the antibody to cells was assayed by FACS.

[2] = biological target: T2, human PD-L1-his (human, UniProt Q9NZQ7 19-238); assay: ForteBio Octet BLI; antibody on AHQ tip, human PD-L1-His 100 nM in solution, monovalent
T2 construct: Bought reagent; also called PD-L1 protein; not shown: His tag
Description: (§2) The equilibrium dissociation constant (KD) for the binding of the prepared exemplary anti-LAG-3/PD-L1 bispecific antibody IGN-LP disclosed herein to LAG-3 and PD-L1 was determined by a kinetic binding assay using the Octet system manufactured by ForteBio. A ForteBio affinity assay was performed according to the method reported in the literature (Estep, P, et al., High throughput solution Based measurement of antibody-antigen affinity and epitope binning MAbs, 2013, 5(2): p. 270-278). Briefly:
(§3) The anti-human IgG Fc biosensor AHQ was immersed in each well containing the antibody solution at room temperature for 600 s to load the samples. The sensor was then washed in SD buffer until it returned to the baseline, and then immersed in a well containing 100 μL of the antigen solution to monitor the binding of the antibody to the antigen. The sensor was then transferred to a well containing 100 uL of the SD buffer to monitor the antibody dissociation (the operation procedures were set as: Baseline, Loading ˜1 nm, Baseline, Association and Dissociation, each running for a time depending on the binding and dissociation rates of the samples). The rotation speed was 400 rpm and the temperature was 30° C. […]

[3] = biological target: T2, human PD-L1-his; assay: ForteBio Octet BLI; antibody on AHQ tip, human PD-L1-His 100 nM in solution
Description: as §2, §3

[4] = biological target: T3, human LAG-3 on 293 cells overexpressing human LAG-3 (293-LAG-3) (human, UniProt P18627 23-525); assay: FACS on 293-LAG-3 cells, PE anti-human Fc detection
T3 construct: whole, on cells; also called LAG-3 on the cell surface
T3 sequence (looked up): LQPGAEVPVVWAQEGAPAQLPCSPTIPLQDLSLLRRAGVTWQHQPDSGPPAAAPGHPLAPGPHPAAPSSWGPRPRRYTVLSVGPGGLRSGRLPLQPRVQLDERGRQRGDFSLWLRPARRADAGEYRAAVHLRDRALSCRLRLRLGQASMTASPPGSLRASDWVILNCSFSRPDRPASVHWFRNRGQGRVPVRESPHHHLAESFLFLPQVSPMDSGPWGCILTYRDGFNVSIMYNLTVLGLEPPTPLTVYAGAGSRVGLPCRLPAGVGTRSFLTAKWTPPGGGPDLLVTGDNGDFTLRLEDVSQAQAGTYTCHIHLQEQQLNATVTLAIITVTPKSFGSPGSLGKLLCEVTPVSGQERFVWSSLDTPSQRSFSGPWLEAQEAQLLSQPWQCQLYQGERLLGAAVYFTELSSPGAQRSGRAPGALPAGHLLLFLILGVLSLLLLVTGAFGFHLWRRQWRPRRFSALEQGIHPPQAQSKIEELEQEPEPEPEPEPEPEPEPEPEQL
Description: as §1

[5] = biological target: T4, human LAG-3-his (human, UniProt P18627 23-450); assay: ForteBio Octet BLI; antibody on AHQ tip, human LAG-3-His 100 nM in solution
T4 construct: Bought reagent; also called LAG-3 protein; not shown: His tag
T4 sequence (looked up): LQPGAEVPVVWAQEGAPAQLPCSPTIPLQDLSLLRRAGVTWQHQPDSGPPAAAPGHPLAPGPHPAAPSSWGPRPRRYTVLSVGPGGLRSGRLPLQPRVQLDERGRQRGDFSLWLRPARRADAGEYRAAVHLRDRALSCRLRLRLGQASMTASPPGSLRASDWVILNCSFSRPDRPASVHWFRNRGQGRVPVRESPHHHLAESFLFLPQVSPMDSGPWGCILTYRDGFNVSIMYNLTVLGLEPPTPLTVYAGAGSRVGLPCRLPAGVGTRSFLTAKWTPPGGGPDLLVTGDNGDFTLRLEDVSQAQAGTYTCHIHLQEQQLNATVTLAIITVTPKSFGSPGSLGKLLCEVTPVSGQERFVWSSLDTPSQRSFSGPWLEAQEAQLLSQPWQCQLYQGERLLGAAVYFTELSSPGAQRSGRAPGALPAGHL
Description: as §2, §3

[6] = biological target: T4, human LAG-3-his; assay: ForteBio Octet BLI; antibody on AHQ tip, human LAG-3-His 100 nM in solution, monovalent
Description: as §2, §3

T2 sequence (Q9NZQ7 19-238 limits assumed): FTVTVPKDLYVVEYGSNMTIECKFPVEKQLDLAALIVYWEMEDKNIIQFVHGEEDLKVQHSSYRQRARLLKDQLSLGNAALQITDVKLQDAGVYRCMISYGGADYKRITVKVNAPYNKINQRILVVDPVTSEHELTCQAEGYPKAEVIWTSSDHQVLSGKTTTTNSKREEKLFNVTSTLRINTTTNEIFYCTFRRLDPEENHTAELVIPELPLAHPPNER
T1 sequence (Q9NZQ7 19-290): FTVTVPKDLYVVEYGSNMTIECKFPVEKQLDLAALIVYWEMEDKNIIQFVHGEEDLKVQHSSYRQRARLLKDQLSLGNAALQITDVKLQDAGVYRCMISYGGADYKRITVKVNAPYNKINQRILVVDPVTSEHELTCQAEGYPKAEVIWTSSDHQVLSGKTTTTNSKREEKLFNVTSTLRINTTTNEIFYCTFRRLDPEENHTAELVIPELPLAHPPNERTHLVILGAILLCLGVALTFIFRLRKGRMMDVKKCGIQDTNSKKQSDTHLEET

B1: anti-PD-L1 humanized Nb-Fc antibody (Fc fusion)
chain: QVQLQESGGGLVQPGGSLRLSCAASAYTISRNSMGWFRQAPGKGLEGVAAIESDGSTSYSDSVKGRFTISLDNSKNTLYLEMNSLRAEDTAVYYCAAPKVGLGPRTALGHLAFMTLPALNYWGQGTLVTVSS
notes: The VHH is inferred from the words 'parent antibody' / 'parental anti-PD-L1 antibody'; also called anti-humanized Nb-Fc; parental anti-PD-L1 antibody; not shown: the antibody was obtained according to ZL201710657665.3
Work on B1 yielded an EC50 [1] of 1.2 nM, a Kd [2] of 11.5 nM and a koff [3] of 0.00356 s⁻¹. It also gave a kon [3] of 310000 M⁻¹ s⁻¹.

B2: anti-LAG-3 antibody ADI-31853 (antibody, human IgG1, kappa, L234A L235A, V domains shown)
VH: QLQLQESGPGLVKPSETLSLTCTVSGGSIYSESYYWGWIRQPPGKGLEWIGSIVYSGYTYYNPSLKSRVTISVDTSKNQFSLKLSSVTAADTAVYYCARVRTWDAAFDIWGQGTMVTVSS
VL: DIQMTQSPSSLSASVGDRVTITCQASQDISNYLNWYQQKPGKAPKLLIYDASNLETGVPSRFSGSGSGTDFTFTISSLQPEDIATYYCQQVLELPPWTFGGGTKVEIKR
notes: also called parental anti-LAG-3 antibody
Work on B2 yielded an EC50 [4] of 0.504 nM, a koff [5] of 0.0002 s⁻¹ and a kon [5] of 128000 M⁻¹ s⁻¹. The Kd [6] was 1.56 nM.
